Molecular target: untagged RNF8 FHA domain (UniProt O76064)
Experiment: ITC

UniProt O76064, sequence (O76064 38-92): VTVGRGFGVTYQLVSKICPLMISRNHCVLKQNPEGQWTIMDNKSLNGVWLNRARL

ICP0 pT67 peptide
Kd: 833 nM
